Earlier results in US20260217837A1, “FGFR3 BINDING MOLECULES AND METHODS OF USE THEREOF” (Regeneron Pharmaceuticals, Inc., priority 2023, published 2026).
Where a chain is given by its changes, count along the chain named. Read-outs that look alike come from different tables or passages of the source.

B1: MS-Pro-54: anti-FGFR3 Ig-like domain 3 antibody of WO 2002/102972 A2; SEQ ID NO: 42/43 (antibody, V domains shown)
VH: QVQLVQSGAEVKKPGASVKVSCKASGYTFTSYYMHWVRQAPGQGLEWMGWINPNSGGTNYAQKFQGRVTMTRDTSISTAYMELSSLRSEDTAVYYCARNMAYTNYQYVNMPHFDYWGQGTLVTVSS
VL: DIELTQPPSVSVAPGQTARISCSGDALGDKYASWYQQKPGQAPVLVIYDDSDRPSGIPERFSGSNSGNTATLTISGTQAEDEADYCQSYDYFKLVFGGGTKLTVLGQ
B2: MS-Pro-55: anti-FGFR3 Ig-like domain 3 antibody of WO 2002/102972 A2; SEQ ID NO: 44/45 (antibody, V domains shown)
VH: QVQLVQSGAEVKKPGASVKVSCKASGYTFTSYYMHWVRQAPGQGLEWMGWINPNSGGTNYAQKFQGRVTMTRDTSISTAYMELSSLRSEDTAVYYCARSMNSTMYWYLRRVLFDHWGQGTLVTVSS
VL: DIALTQPASVSGSPGQSITISCTGTSSDVGGYNYVSWYQQHPGKAPKLMIYDVSNRPSGVSNRFSGSKSGNTASLTISGLQAEDEADYYCQSYDMYNYIVFGGGTKLTVLGQ
B3: PRO-001: anti-FGFR3 antibody of WO 2006/048877 A2; SEQ ID NO: 46/29 (antibody, V domains shown)
VH: QVQLQQSGPGLVKPSQTLSLTCAISGDSVSSNSAAWNWIRQSPGRGLEWLGRTYYRSKWYNDYAVSVKSRITINPDTSKNQFSLQLNSVTPEDTAVYYCARSYYPDFDYWGQGTLVTVSS
VL: DIELTQPPSVSVAPGQTARISCSGDALGDKYASWYQQKPGQAPVLVIYDDSDRPSGIPERFSGSNSGNTATLTISGTQAEDEADYYCQSYDGPDLWVFGGGTKLTVLGQ
B4: PRO-002: anti-FGFR3 antibody of WO 2006/048877 A2; SEQ ID NO: 24/25 (antibody, V domains shown)
VH: QVQLVQSGAEVKKPGASVKVSCKASGYTFTSYYMHWVRQAPGQGLEWMGWINPNSGGTNYAQKFQGRVTMTRDTSISTAYMELSSLRSEDTAVYYCARDFLGYEFDYWGQGTLVTVSS
VL: B3 VL with G92Y, P93S, D94A, L95D, W96Y
B5: PRO-012: anti-FGFR3 antibody of WO 2006/048877 A2; SEQ ID NO: 47/27 (antibody, V domains shown)
VH: QVQLKESGPALVKPTQTLTLTCTFSGFSLSTSGVGVGWIRQPPGKALEWLALIDWDDDKYYSTSLKTRLTISKDTSKNQVVLTMTNMDPVDTATYYCARYHSWYEMGYYGSTVGYMFDYWGQGTLVTVSS
VL: DIELTQPPSVSVAPGQTARISCSGDALGDKYASWYQQKPGQAPVLVIYDDSDRPSGIPERFSGSNSGNTATLTISGTQAEDEADYYCQSYDFDFAVFGGGTKLTVLGQ
B6: PRO-026: anti-FGFR3 IIIc antibody of WO 2006/048877 A2; SEQ ID NO: 36/37 (antibody, V domains shown)
VH: QVQLVQSGAEVKKPGASVKVSCKASGYTFTSYYMHWVRQAPGQGLEWMGWINPNSGGTNYAQKFQGRVTMTRDTSISTAYMELSSLRSEDTAVYYCARGYWYAYFTYINYGYFDNWGQGTLVTVSS
VL: DIALTQPASVSGSPGQSITISCTGTSSDVGGYNYVSWYQQHPGKAPKLMIYDVSNRPSGVSNRFSGSKSGNTASLTISGLQAEDEADYYCQSYDNNSDWFGGGTKLTVLGQ
B7: PRO-029: anti-FGFR3 IIIc antibody of WO 2006/048877 A2; SEQ ID NO: 40/49 (antibody, V domains shown)
VH: QVQLVQSGAEVKKPGASVKVSCKASGYTFTSYYMHWVRQAPGQGLEWMGWINPNSGGTNYAQKFQGRVTMTRDTSISTAYMELSSLRSEDTAVYYCARTWQYSYFYYLDGGYYFDIWGQGTLVTVSS
VL: DIVLTQSPATLSLSPGERATLSCRASQSVSSSYLAWYQQKPGQAPRLLIYGASSRATGVPARFSGSGSGTDFTLTISSLEPEDFATYYCQQTNNAPVTFGQGTKVEIKRT
B8: MS-PRO-12: anti-FGFR3 Ig-like domain 2 antibody of WO 2002/102972 A2; SEQ ID NO: 26/27 (antibody, V domains shown)
VH: QVQLKESGPALVKPQTLTLTCTFSGFSLSTSGVGVGWIRQPPGKALEWLALIDWDDDKYYSTSLKTRLTISKDTSKNQVVLTMTNMDPVDTATYYCARYHSWYEMGYYGSTVGYMFDYWGQGTLVTVSS
VL: B5 VL
B9: PRO-054: anti-FGFR3 IIIc antibody of WO 2006/048877 A2; SEQ ID NO: 42/50 (antibody, V domains shown)
VH: B1 VH
VL: B5 VL with F92Y, D93F, F94K, A95L
B10: PRO-055: anti-FGFR3 IIIc antibody of WO 2006/048877 A2; SEQ ID NO: 44/45 (antibody, V domains shown)
VH: B2 VH
VL: B2 VL
B11: 15D8: anti-FGFR3 Igl 3 antibody of WO 2010/002862 A2; SEQ ID NO: 51/52 (antibody, V domains shown)
VH: EIQLQQSGPELVKPGASVKVSCKASGYAFTSYNMYWVKQSHGKSLEWIGYIDPYNGGTSYNQKFKGKATLTVDKSSSTAYMHLNSLTSEDSAVYYCAREGGNYEAWFAYWGQGTLVTVSA
VL: QIVLTQSPALMSASPGEKVTMTCSASSSVSYMYWYQQKPRSSPKPWIYLTSYLASGVPARFSGSGSGTSYSLTISSMEAEDAATYYCQQWSSYPLTFGAGTKLELK
B12: 27H2: anti-FGFR3 Igl 3 antibody of WO 2010/002862 A2; SEQ ID NO: 53/54 (antibody, V domains shown)
VH: B11 VH with S59R, L70M
VL: B11 VL with Y52N, Y93N
B13: 2G4: anti-FGFR3 Igl 3 antibody of WO 2010/002862 A2; SEQ ID NO: 55/54 (antibody, V domains shown)
VH: B11 VH with S59R, Y60D
VL: B11 VL with Y52N, Y93N

Tested on: FGFR3
[1] = Exemplary FGFR3 D3 binding sequences, antibodies of cited PCT publications
[2] = Table T-1, exemplary FGFR3 parental antibodies of cited publications

Molecule	Activity [1]	Activity [2]
B1	Antagonistic	Antagonistic
B2	Antagonistic	Antagonistic
B3	–	Antagonistic
B4	–	Antagonistic
B5	–	Antagonistic
B6	Antagonistic	Antagonistic
B7	Antagonistic	Antagonistic
B8	–	Antagonistic
B9	Antagonistic	Antagonistic
B10	Antagonistic	Antagonistic
B11	Antagonistic	Antagonistic
B12	Antagonistic	Antagonistic
B13	Antagonistic	Antagonistic
